Among the data in doi:10.1101/2021.02.03.429507 are Kd values, retold here.

In experiment [1] the target is Core-binding region peptide of E-cad, AlexaFluor 488 at the C-terminus (mouse). The experiment is described as follows: two-focus FCS.
Experiment [2] deals with Core-binding region peptide of E-cad, AlexaFluor 488 at the N-terminus (mouse). The experiment can be described thus: two-focus FCS.
Experiment [3] has as its target E-cad construct B (cytoplasmic tail of mouse E-cadherin, FRET labels on the central segment) (mouse) (UniProt P09803). The experiment can be described thus: single-molecule FRET.
In experiment [4] the target is E-cad construct C (cytoplasmic tail of mouse E-cadherin, FRET labels on the C-terminal segment) (mouse) (UniProt P09803). The experiment can be described thus: single-molecule FRET.
Experiment [5] concerns the target E-cad construct A (cytoplasmic tail of mouse E-cadherin, FRET labels on the N-terminal segment) (mouse) (UniProt P09803). The experiment can be described thus: single-molecule FRET.

pKd: −log10 of the molar value.

In the case of “Full-length murine beta-catenin (from UniProt Q02248 1-781) (natural protein)”, the negative-log Kd (pKd) (commonly the negative decadic logarithm of the Kd, by convention in mol/L) in experiment [1] was < 6.00; in experiment [2], < 6.00; in experiment [3], 8.40; in experiment [4] it was 8.40; in experiment [5] it was 8.40.
